Results from US20260234247A1.

What was measured:
[1] = molecular target: Rhesus LILRB1 (NP_001035762.2) protein (rhesus macaque) (UniProt F7H3G7); assay: ELISA on rhesus LILRB1 (NP_001035762.2) protein
[2] = molecular target: Rhesus LILRB1 (NP_001035762.2) on CHOK1 cells (rhesus macaque) (UniProt F7H3G7); assay: flow cytometry on CHOK1-rhesus LILRB1 (NP_001035762.2) cells

- EC50 [1]: 50 pM
- EC50 [2]: 1080 pM
B1: LK-RB1-5 (antibody, human IgG4 S228P, kappa, V domains shown)
VH: QVQLQQPGAELVKPGASVKLSCKASGYTFTDFWIHWVKQRPGQGLEWIGMIHPNSGSTNFNEKFRAKATLTVDKSSSTAYMRLSSLTSEDSAVYYCARSGDGYSNPMDYWGQGTSVTVSS
VL: QIVLSQSPAILSASPGEKVTLTCRASSSVSYMHWYQQKPGSSPKPWIYATSNLASGVPVRFSGSGSGTSYSLTISRMQTEDAATYYCQQWRRSPYTFGGGTKLEIKR
